Assay results from the domain aggregation screens of Martell et al. (2025).

Experiment: soluble fraction after stress (log2 fold change); higher = more stays soluble; pooled small domains, quantitative proteomics
Settings: stress: pH 4
How it was run: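 Custom libraries of small protein domains were pooled and measured with high-throughput quantitative proteomics after pH 4 stress. The read-out is the fold change in the amount of each domain that stays soluble after the acid stress, taken as a measure of aggregation propensity. Fold changes are on a log2 scale, and higher values mean more of the domain stayed soluble.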

First: HMASQFSLIVTQADAGMRLDSLLAVSGAYPSRSAAVKQIEAGKVLVNGLARSKRSIVAPGDTIVYEEIP
Second: HMASQVERGAVVVTDQRIFFIGVSSEGIEVHGTKIFGMSEKAPLYSHMKGLKKGDSFQFNGLKYVIQDIY
The “soluble fraction (log2)” value of the first is higher: -0.0502 for the first, -0.916 for the second.

Going from “HMASRKTERINRLIDVLQHATSRVPASVLSKILGIGERSVRNYVSEVNEQGQFRIDSSSGGYRLVA” to “HMASRTLSYSEFMSRVDSGDVTSVTLDGERIIMRTSNNQEFLSIKPEGEDISERLLAKNIEVRAEAQQ”, the “soluble fraction (log2)” value falls from -0.0154 to -1.58.

Going from “HMASVGTHIKRLRAAKRMTQEELAEQLHVTRQAVSAWETGKALPDVEMLERIAAALDADVTEVIYGA” to “HMATAATGIINNNYVNVRSGPATTYNIVGRLDQGSSIEILGSKNDWYQIKTKQLNGWVKNDFINLQK”, the “soluble fraction (log2)” value rises from -0.24 to 0.14.

“HMATETELNLQLMRIIDELHTDHNTWGSRKITDYLRLQGYEINRKRIQRLMDVMDIQVVYPK” and “HMATEVEVPDVVGRQMALATQLLEARKLRVNVAEIYDEKTPPGQVVSQSPEAGSSVKEERVVTIYVSR” are within 0.2 log units of each other in “soluble fraction (log2)” value: -0.00483 for the first, 0.158 for the second.

Compared with “HMATGGKIYIGMNDNGKVVGVSDADKLLEDIPNKVRDVLGIIVDVNLLEENGLKYIEIDVPPYSN”, “HMATGIKAVDNVFGWMNLEQVAKTVGLDIPSVLRASGLPEDTPVDISIKKIPGVDDEELKDSLRQYIEKS” is higher in “soluble fraction (log2)” value: -0.477 for the first, -0.237 for the second.

Going from “HMATGTVKWFNPNKGFGFIQQDDASKDVFVHSNELNGVYINEGDKVEFDVVETEKGLSAQNIKK” to “HMATHGRRAVIELREKIVSGELPGGTRLFEVSLAETLDISRTPVREALSRLAEEGLLDRLPNGGFVVRR”, the “soluble fraction (log2)” value falls from 0.0939 to -1.39.

“HMATIGVGSKVTLTTYVDWVGNGLLKTRDFYFVSELNGKRAVLRADSMNGAIYAAVNIDNLRI” and “HMATINGIEKYLSSGLIPGIGPHTAKKLVEKFGLDTLDIMQYNPDRLTEVEGIGDKKAAKISEAFQEQK” are within 0.2 log units of each other in “soluble fraction (log2)” value: -0.103 for the first, -0.191 for the second.

First: HMATKVNSGVTVRDLAELLGLSSADLIKKLMTMGEMATLTQTLTDDSVKAIADEYDRKIEIVSAAQ
Second: HMATLTPLGRLQLARYHAQERATLAATAERFQVSTTTVRRWVGRYHQVVAAGGRPTTADMQDRPSRP
The “soluble fraction (log2)” value of the first is lower: -0.771 for the first, -0.00504 for the second.

First: HMATMSIDERILEIRSRAGLTQQEMADRLFVTRQAVSRWERGETVPGIDTLRLIAEAFDVRVDQILEL
Second: HMATQMSSARRGIATDEMKQVAKDEDVTLDWLLPKIAIGSIIIPSNNVRPQKIHNVGIGKGMKTKVN
The “soluble fraction (log2)” value of the first is lower: -1.11 for the first, -0.246 for the second.

Going from “HMATTTEPTSPPAATASLEAKINWLFLIFRNKKTVTASEQKFHAEDASTVVGKETLTDDGTTMTKGETAAG” to “HMATVELELKPEELRAGMILTKDLISGTGMMLLNKGVTLDNVKVEAIQRYYQLDPPLHGVFALVHGK”, the “soluble fraction (log2)” value falls from -0.437 to -0.896.

“HMATVGENIRRYRKAQNLSAAKLAEKVGLTQGAILHYERGIRTPGISQLEKIAHALNVSPRM” and “HMATVPNVVGLSEEKAKSRLANNGLNVSVTTEEVSDKSKDGIVSSQTSEGDTVKQGATITITVGKYVEK” are within 0.2 log units of each other in “soluble fraction (log2)” value: 0.114 for the first, -0.0691 for the second.

Going from “HMATYDIDALKVDLPSAKELAQFVYDKTDGLVSLDLIGKPKEEQYIVAKNALEGKKVPAEYLTGFNPY” to “HMATYTPYDKQGAKLWRVTAYLGMDSVTGKQRNMKKGGFKTKKEAQLYYNQVKLDFENGTLDQ”, the “soluble fraction (log2)” value rises from -0.273 to 0.22.

First: HMAVEQLKSQIGGFLKANREQSFSAQNMADGLRMNSAAGYQDVVNAMNALVRDGEAVEKDGQFSYNVN
Second: HMAVETYRVKKSDTMQTIADRFGLSVEELLEYNQAYKTRELRARDILIIPSRKERKKLQQQKAQAAAQVVQ
The “soluble fraction (log2)” value of the first is lower: -0.0292 for the first, 0.404 for the second.

First: HMAVGTASNLIGKDIEAYAPIDGSQSSDDTKTISGKVESVHIKDGVVYMNVKDSQSENIIEVEYGALIKVN
Second: HMAVKPIDRLRSLMAESNVTDAELQKVVADKGHYAADAPIDSYSEKFISGWLIKYWSQILNLINADRTVL
The “soluble fraction (log2)” value of the first is higher: 0.247 for the first, -0.0558 for the second.

First: HMAVKTEHGRIWKALPEGQDGYREDVPMFTSKSMYDGSAGIGIFLIRLYEATSDERWLKEAEEAAAHII
Second: HMAVLEGPAGKLGIVRFEANRSFTGMGHERFSSADQAFGTKPAAVVASRLFATGQVAGVHVYGNIITVELA
The “soluble fraction (log2)” value of the first is lower: 0.308 for the first, ≥ 0.43 for the second.
